{
  "source": "patent US7179650",
  "about": "(University of Texas, dated 2007)",
  "binders": {"B1": {"name": "sentrin-1 (24-101) (yeast two-hybrid) (other)", "chain": "LKVIGQDSSEIHFKVKMTTHLKKLKESYCQRQGVPMNSLRFLFEGQRIADNHTPKELGMEEEDVIEVYQEQTGGHSTV", "notes": "also called deletion of the N terminal 23 amino acids; not shown: GAL4 fusion domain of the two-hybrid vector"}, "B2": {"name": "sentrin-1 (1-70) (yeast two-hybrid) (other)", "chain": "MSDQEAKPSTEDLGDKKQGEYIKLKVIGQDSSEIHFKVKMTTHLKKLKESYCQRQGVPMNSLRFLFEGQR", "notes": "also called deletion of the C-terminal 31 amino acids; not shown: GAL4 fusion domain of the two-hybrid vector"}, "B3": {"name": "The N-terminal 23 amino acids of sentrin-1 (yeast two-hybrid) (peptide)", "chain": "MSDQEAKPSTEDLGDKKQGEYIK", "notes": "Range worked out from the words: the N-terminal 23 amino acids; also called sentrin-1 (1-23); not shown: GAL4 fusion domain of the two-hybrid vector"}, "B4": {"name": "Sentrin-1 with substitution of Ala-Ala for Gly-Gly (yeast two-hybrid) (other)", "chain": "MSDQEAKPSTEDLGDKKQGEYIKLKVIGQDSSEIHFKVKMTTHLKKLKESYCQRQGVPMNSLRFLFEGQRIADNHTPKELGMEEEDVIEVYQEQTAAHSTV", "notes": "not shown: GAL4 fusion domain of the two-hybrid vector"}, "B5": {"name": "UbCH6 (yeast two-hybrid) (enzyme, human, UniProt P51965 1-193, looked up)", "chain": "MSDDDSRASTSSSSSSSSNQQTEKETNTPKKKESKVSMSKNSKLLSTSAKRIQKELADITLDPPPNCSAGPKGDNIYEWRSTILGPPGSVYEGGVFFLDITFTPEYPFKPPKVTFRTRIYHCNINSQGVICLDILKDNWSPALTISKVLLSICSLLTDCNPADPLVGSIATQYMTNRAEHDRMARQWTKRYAT", "notes": "as for B4"}, "B6": {"name": "E2-EPF (yeast two-hybrid) (enzyme, human, UniProt Q16763 1-222, looked up)", "chain": "MNSNVENLPPHIIRLVYKEVTTLTADPPDGIKVFPNEEDLTDLQVTIEGPEGTPYAGGLFRMKLLLGKDFPASPPKGYFLTKIFHPNVGANGEICVNVLKRDWTAELGIRHVLLTIKCLLIHPNPESALNEEAGRLLLENYEEYAARARLLTEIHGGAGGPSGRAEAGRALASGTEASSTDPGAPGGPGGAEGPMAKKHAGERDKKLAAKKKTDKKRALRRL", "notes": "as for B4"}},
  "data": [
    {"molecular_target": "T1, Full-length human Ubc9 in pGAD424 (GAL4 activation domain fusion) (human, UniProt P04386 768-881; P63279 1-158)", "T1 construct": "also called human ubiquitin conjugating enzyme", "assay": "yeast two-hybrid", "values": [
      {"binder": "B1", "binding result": "binds"},
      {"binder": "B2", "binding result": "no binding"},
      {"binder": "B3", "binding result": "no binding"},
      {"binder": "B4", "binding result": "no binding"}
    ]},
    {"molecular_target": "T2, Gal-4-sentrin-1 (pGBT9-sentrin-1, full-length sentrin-1 fused to the GAL4 DNA-binding domain) (human, UniProt P04386 1-147 (Saccharomyces cerevisiae entry))", "T2 construct": "also called wild type sentrin-1; sentrin-1 bait", "assay": "yeast two-hybrid", "values": [
      {"binder": "B5", "binding result": "no binding"},
      {"binder": "B6", "binding result": "no binding"}
    ]}
  ]
}
